Tests used:
[1] = biological target: T1, GST-Crkl (intra SH3), P46109
T1 chain: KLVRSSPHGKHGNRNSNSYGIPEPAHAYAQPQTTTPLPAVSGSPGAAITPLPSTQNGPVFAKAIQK

[2] = biological target: GST-Crkl (full length), P46109
[3] = biological target: GST-Crkl (SH3), P46109
[4] = biological target: T2, Abl peptide NH2-EAIYAAPFAKKK-COOH (SEQ. ID. NO: 4), acrylic-labeled, photocleavable
T2 chain: EAIYAAPFAKKK

GST-Crkl (SH3), P46109, sequence (P46109 120-303): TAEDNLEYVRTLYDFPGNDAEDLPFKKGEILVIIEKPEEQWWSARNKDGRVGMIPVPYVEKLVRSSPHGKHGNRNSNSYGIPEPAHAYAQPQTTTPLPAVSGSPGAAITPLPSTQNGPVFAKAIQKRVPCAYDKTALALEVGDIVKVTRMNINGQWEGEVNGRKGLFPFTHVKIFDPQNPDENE
GST-Crkl (full length), P46109, sequence (P46109 whole entry): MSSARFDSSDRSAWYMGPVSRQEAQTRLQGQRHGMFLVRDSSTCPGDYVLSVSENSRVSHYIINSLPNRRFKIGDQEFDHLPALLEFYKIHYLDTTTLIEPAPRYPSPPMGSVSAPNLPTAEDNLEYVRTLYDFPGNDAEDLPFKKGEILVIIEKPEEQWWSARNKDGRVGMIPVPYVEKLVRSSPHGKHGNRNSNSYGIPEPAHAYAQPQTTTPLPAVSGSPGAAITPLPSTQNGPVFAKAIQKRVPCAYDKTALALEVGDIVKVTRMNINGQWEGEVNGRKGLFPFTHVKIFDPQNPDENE

B1: v-Abl tyrosine kinase (Calbiochem / EMD Biosciences) (protein)
chain: YITPVNSLEKHSWYHGPVSRNAAEYLLSSGINGSFLVRESESSPGQRSISLRYEGRVYHYRINTASDGKLYVSSESRFNTLAELVHHHSTVADGLITTLHYPAPKRNKPTIYGVSPNYDKWEMERTDITMKHKLGGGQYGEVYEGVWKKYSLTVAVKTLKEDTMEVEEFLKEAAVMKEIKHPNLVQLLGVCTREPPFYIITEFMTYGNLLDYLRECNRQEVSAVVLLYMATQISSAMEYLEKKNFIHRDLAARNCLVGENHLVKVADFGLSRLMTGDTYTAHAGAKFPIKWTAPESLAYNKFSIKSDVWAFGVLLWEIATYGMSPYPGIDLSQVYELLEKDYRMERPEGCPEKVYELMRACWQWNPSDRPSFAEIHQAFETMFQESSISD
[1]
  tyrosine phosphorylation of bead-immobilized substrate, anti-phosphotyrosine Western blot: v-Abl displays tyrosine kinase activity toward GST-Crkl (SH3) and GST-Crkl (intra SH3) in the absence of imatinib
  tyrosine phosphorylation on protein array, ECL, 2 h reaction: v-Abl demonstrates a slight preference for the GST-Crkl (SH3) substrate relative to the GST-Crkl (intra SH3) substrate
[2]
  tyrosine phosphorylation of bead-immobilized substrate, anti-phosphotyrosine Western blot: GST-Crkl (full-length) is not phosphorylated by v-Abl
  tyrosine phosphorylation of surface spots, ECL film (Example 9): Qualitative detection of phosphorylated tyrosine for the 833 and 1660 ng spots of the two larger forms of GST-Crkl can be seen
  tyrosine phosphorylation on protein array, ECL: Phosphorylation of GST-Crkl (full-length) is minimal (data not shown)
[3]
  tyrosine phosphorylation of bead-immobilized substrate, anti-phosphotyrosine Western blot: v-Abl displays tyrosine kinase activity toward GST-Crkl (SH3) and GST-Crkl (intra SH3) in the absence of imatinib
  tyrosine phosphorylation of surface spots, ECL film (Example 9): Qualitative detection of phosphorylated tyrosine for the 833 and 1660 ng spots of the two larger forms of GST-Crkl can be seen
  tyrosine phosphorylation on protein array, ECL, 2 h reaction: v-Abl demonstrates a slight preference for the GST-Crkl (SH3) substrate relative to the GST-Crkl (intra SH3) substrate
[4]
  extent of phosphorylation of the immobilized peptide, MALDI mass spectrometry: the extent of phosphorylation was estimated to be approximately 90%
